# How the values were obtained:
# [1] = molecular target: the molecule itself; assay: negative-stain electron microscopy
# crystal structure = molecular target: the molecule itself; assay: crystal structure
# SEC = molecular target: the molecule itself; assay: SEC
protein,measurement,setting,value
"NtrC1^C,WT, central (AAA+ ATPase) domain of NtrC1 of Aquifex aeolicus (domain or fragment) RKENELLRREKDLKEEEYVFESPKMKEILEKIKKISCAECPVLITGESGVGKEVVARLIHKLSDRSKEPFVALNVASIPRDIFEAELFGYEKGAFTGAVSSKEGFFELADGGTLFLDEIGELSLEAQAKLLRVIESGKFYRLGGRKEIEVNVRILAATNRNIKELVKEGKFREDLYYRLGVIEIEIPPLRERKEDIIPLANHFLKKFSRKYAKEVEGFTKSAQELLLSYPWYGNVRELKNVIERAVLFSEGKFIDRGELSCLVNSK",stoichiometry N,[1],7
"NtrC1^C,E239A, Walker-B variant of the central domain of NtrC1 of Aquifex aeolicus (domain or fragment) RKENELLRREKDLKEEEYVFESPKMKEILEKIKKISCAECPVLITGESGVGKEVVARLIHKLSDRSKEPFVALNVASIPRDIFEAELFGYEKGAFTGAVSSKEGFFELADGGTLFLDAIGELSLEAQAKLLRVIESGKFYRLGGRKEIEVNVRILAATNRNIKELVKEGKFREDLYYRLGVIEIEIPPLRERKEDIIPLANHFLKKFSRKYAKEVEGFTKSAQELLLSYPWYGNVRELKNVIERAVLFSEGKFIDRGELSCLVNSK",stoichiometry N,crystal structure,7
"NtrC1^C,R293A (domain or fragment, Aquifex aeolicus) RKENELLRREKDLKEEEYVFESPKMKEILEKIKKISCAECPVLITGESGVGKEVVARLIHKLSDRSKEPFVALNVASIPRDIFEAELFGYEKGAFTGAVSSKEGFFELADGGTLFLDEIGELSLEAQAKLLRVIESGKFYRLGGRKEIEVNVRILAATNRNIKELVKEGKFAEDLYYRLGVIEIEIPPLRERKEDIIPLANHFLKKFSRKYAKEVEGFTKSAQELLLSYPWYGNVRELKNVIERAVLFSEGKFIDRGELSCLVNSK",binding result,SEC,binds

# Source: publication PMC3001195 (Structure (London, England : 1993), 2010)
